This is an account of results in article PMC7456325.

For the test, the target named is T. suis B ΔC26 (Trichuris suis BCL-2-like protein B, C-terminal truncation) (Trichuris suis). Description: MST; Monolith NT.115; protein labelled with NHS RED, unlabelled synthetic peptide diluted in phosphate-buffered saline; 30 min incubation; 25 °C; 40% LED and 40% MST power; three independent experiments, single binding model.

B1: T. suis protein B BH3 peptide (peptide)
peptide: PILPEVNKTALCMRAMGEVFEDRYKT
B1: the Kd was greater than 50 µM.

B2: T. suis protein A BH3 peptide (peptide)
peptide: SVRAPIRLCDAMFLMCDLFERKFHDR
In turn, B2 registered a dissociation constant (Kd) greater than 50 µM.

What is called Kd is the equilibrium constant for the complex coming apart. Read a low Kd as a tighter complex.
